Measured values published in publication PMC10661864.

Biological target: AAV-DJ capsid proteins VP2 and VP3 (capsid shell) (adeno-associated virus, AAV-DJ (engineered capsid))
Experiment: co-sedimentation

“AAV-DJ capsid protein VP1 (wild type) (natural protein)” was tested. Which VP1 copies per 60-mer capsid (VP1 copies per 60-mer capsid) did it give?
Its VP1 copies per 60-mer capsid (VP1 copies per 60-mer capsid) is 3.
